Source: paper doi:10.1101/2022.04.29.490010 (bioRxiv, 2022)

B1: EndoA wild type (Drosophila Endophilin-A, GST tag cleaved) (natural protein, UniProt Q8T390 1-369, looked up)
chain: MAFAGLKKQINKANQYMTEKMGGAEGTKLDMDFMEMERKTDVTVELVEELQLKTKEFLQPNPTARAKMAAVKGISKLSGQAKSNTYPQPEGLLAECMLTYGKKLGEDNSVFAQALVEFGEALKQMADVKYSLDDNIKQNFLEPLHHMQTKDLKEVMHHRKKLQGRRLDFDCKRRRQAKDDEIRGAEDKFGESLQLAQVGMFNLLENDTEHVSQLVTFAEALYDFHSQCADVLRGLQETLQEKRSEAESRPRNEFVPKTLLDLNLDGGGGGLNEDGTPSHISSSASPLPSPMRSPAKSMAVTPQRQQQPCCQALYDFEPENPGELAFKENDIITLLNRVDDNWFEGAVNGRTGYFPQSYVQVQVPLPNGN
B2: EndoA^D265A (Drosophila Endophilin-A D265A, GST tag cleaved) (natural protein, UniProt Q8T390 1-369, looked up)
chain: MAFAGLKKQINKANQYMTEKMGGAEGTKLDMDFMEMERKTDVTVELVEELQLKTKEFLQPNPTARAKMAAVKGISKLSGQAKSNTYPQPEGLLAECMLTYGKKLGEDNSVFAQALVEFGEALKQMADVKYSLDDNIKQNFLEPLHHMQTKDLKEVMHHRKKLQGRRLDFDCKRRRQAKDDEIRGAEDKFGESLQLAQVGMFNLLENDTEHVSQLVTFAEALYDFHSQCADVLRGLQETLQEKRSEAESRPRNEFVPKTLLDLNLAGGGGGLNEDGTPSHISSSASPLPSPMRSPAKSMAVTPQRQQQPCCQALYDFEPENPGELAFKENDIITLLNRVDDNWFEGAVNGRTGYFPQSYVQVQVPLPNGN
B3: EndoA^D265R (Drosophila Endophilin-A D265R, GST tag cleaved) (natural protein, UniProt Q8T390 1-369, looked up)
chain: MAFAGLKKQINKANQYMTEKMGGAEGTKLDMDFMEMERKTDVTVELVEELQLKTKEFLQPNPTARAKMAAVKGISKLSGQAKSNTYPQPEGLLAECMLTYGKKLGEDNSVFAQALVEFGEALKQMADVKYSLDDNIKQNFLEPLHHMQTKDLKEVMHHRKKLQGRRLDFDCKRRRQAKDDEIRGAEDKFGESLQLAQVGMFNLLENDTEHVSQLVTFAEALYDFHSQCADVLRGLQETLQEKRSEAESRPRNEFVPKTLLDLNLRGGGGGLNEDGTPSHISSSASPLPSPMRSPAKSMAVTPQRQQQPCCQALYDFEPENPGELAFKENDIITLLNRVDDNWFEGAVNGRTGYFPQSYVQVQVPLPNGN
B4: ENDOA1^WT (human Endophilin-A1, recombinant, GST tag cleaved) (natural protein, UniProt Q99962 1-352, looked up)
chain: MSVAGLKKQFHKATQKVSEKVGGAEGTKLDDDFKEMERKVDVTSRAVMEIMTKTIEYLQPNPASRAKLSMINTMSKIRGQEKGPGYPQAEALLAEAMLKFGRELGDDCNFGPALGEVGEAMRELSEVKDSLDIEVKQNFIDPLQNLHDKDLREIQHHLKKLEGRRLDFDYKKKRQGKIPDEELRQALEKFDESKEIAESSMFNLLEMDIEQVSQLSALVQAQLEYHKQAVQILQQVTVRLEERIRQASSQPRREYQPKPRMSLEFPTGDSTQPNGGLSHTGTPKPSGVQMDQPCCRALYDFEPENEGELGFKEGDIITLTNQIDENWYEGMLHGHSGFFPINYVEILVALPH
B5: ENDOA1^G276V (human Endophilin-A1 with the Parkinson's disease risk variant G276V, recombinant, GST tag cleaved) (natural protein, UniProt Q99962 1-352, looked up)
chain: MSVAGLKKQFHKATQKVSEKVGGAEGTKLDDDFKEMERKVDVTSRAVMEIMTKTIEYLQPNPASRAKLSMINTMSKIRGQEKGPGYPQAEALLAEAMLKFGRELGDDCNFGPALGEVGEAMRELSEVKDSLDIEVKQNFIDPLQNLHDKDLREIQHHLKKLEGRRLDFDYKKKRQGKIPDEELRQALEKFDESKEIAESSMFNLLEMDIEQVSQLSALVQAQLEYHKQAVQILQQVTVRLEERIRQASSQPRREYQPKPRMSLEFPTGDSTQPNGVLSHTGTPKPSGVQMDQPCCRALYDFEPENEGELGFKEGDIITLTNQIDENWYEGMLHGHSGFFPINYVEILVALPH

Columns and labels:
SEC-MALS = target: the molecule itself; test: SEC-MALS
SEC = target: the molecule itself; test: SEC

Protein | stoichiometry N (SEC-MALS) | stoichiometry N (SEC)
B1 | 2 | 
B2 | 2 | 
B3 | 2 | 
B4 |  | 2
B5 |  | 2
